Data on 16 molecules can be found in patent EP4786494A1 (Nanjing Leads Biolabs Co., Ltd., dated 2026).

Experiment [1] addresses T1, human FGFR2-his protein (huFGFR2-his) (human).
T1 construct: Extracellular region of human FGFR2 (NP_001138385.1) with a 6xHis tag; also called human FGFR2 extracellular protein
T1 chain: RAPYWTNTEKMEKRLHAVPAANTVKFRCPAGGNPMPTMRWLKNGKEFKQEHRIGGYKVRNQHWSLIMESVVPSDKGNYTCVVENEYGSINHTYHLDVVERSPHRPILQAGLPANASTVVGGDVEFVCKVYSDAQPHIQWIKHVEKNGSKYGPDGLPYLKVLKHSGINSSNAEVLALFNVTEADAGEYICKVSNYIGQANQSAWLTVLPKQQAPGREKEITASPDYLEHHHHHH
The experiment in a line: ELISA screen of hybridoma subclones on human FGFR2-his.

Experiment [2] addresses T2, human FGFR1 protein (ACRO Biosystems, Cat. No. FG1-H5223) (human, UniProt P11362-14 22-285).
T2 construct: Bought recombinant protein; construct not described
T2 sequence (looked up): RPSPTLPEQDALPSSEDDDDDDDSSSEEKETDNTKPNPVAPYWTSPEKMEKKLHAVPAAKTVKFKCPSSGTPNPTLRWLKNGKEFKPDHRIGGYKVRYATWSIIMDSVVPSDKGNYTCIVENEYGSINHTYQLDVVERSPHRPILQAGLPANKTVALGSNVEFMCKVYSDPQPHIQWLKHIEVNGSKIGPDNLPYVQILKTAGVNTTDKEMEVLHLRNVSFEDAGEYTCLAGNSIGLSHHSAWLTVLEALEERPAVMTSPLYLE
The experiment in a line: ELISA, FGFR1 coated. Background: In an ELISA, binding on a coated surface is turned into a signal by an enzyme label.

Experiment [3] concerns the target T3, human FGFR4 protein (Sino Biological, Cat. No. 10538-H08H) (human, UniProt P22455 22-369).
T3 construct: Bought recombinant protein; construct not described
In words: ELISA, FGFR4 coated.

Experiment [4] concerns the target T4, human FGFR3 protein (Sino Biological, Cat. No. 16486-H08H) (human, UniProt P22607-2 23-377).
T4 construct: Bought recombinant protein; construct not described
T4 sequence (looked up): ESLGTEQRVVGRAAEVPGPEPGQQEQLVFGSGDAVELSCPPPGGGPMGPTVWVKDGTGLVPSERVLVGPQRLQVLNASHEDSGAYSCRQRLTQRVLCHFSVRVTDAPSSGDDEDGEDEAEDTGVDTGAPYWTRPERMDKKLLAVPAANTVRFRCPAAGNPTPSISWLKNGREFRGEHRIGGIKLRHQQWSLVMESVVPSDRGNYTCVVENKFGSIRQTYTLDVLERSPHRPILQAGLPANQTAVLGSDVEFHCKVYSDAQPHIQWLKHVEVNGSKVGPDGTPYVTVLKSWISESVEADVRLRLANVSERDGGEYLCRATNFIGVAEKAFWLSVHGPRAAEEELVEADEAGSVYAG
The experiment in a line: ELISA, FGFR3 coated.

B1: mouse antibody F3F8 (antibody, V domains shown)
VH: QVTLKESGPGILQSSQTLSLTCSFSGFSLSTSGMGVSWIRQPSGKGLEWLAHIYWDNDKRYNPSLKSRLTISKDTSRNQVFLKITSVDTADTATYYCTRSDSSGSFDYWGQGTTLTVSS
VL: DIQMTQTTSSLSASLGDRVTISCRASQDISNYLNWYQQKPDGTVKFLIYYTSTLHSGVPSRFSGSGSGTDYSLTISNLEQEDIATYFCQQGNTLPWTFGGGTKLEIK
notes: Antibody as produced by the hybridoma
Regarding B1, the binding result in experiment [1] is listed as “binds”.

B2: mouse antibody D12D8 (antibody, V domains shown)
VH: QVQLQQSGAELARPGASVKLSCKASGYTFTNYGISWVKQRTGQGLEWIGEIYPRSGNTYYNEKFKGKATLTADKSSSTAYMELRSLTSEDSAVYFCARGDYSNSDYWGQGTTLTVSS
VL: DIQMTQTTSSLSASLGDRVTISCRASQDITDHLNWYQQKPDGTVKLLIYYTSRLHSGVPSRFSGSGSGTDYSLTISNLEQEDIATYFCQQGNTLPRTFGGGTKLEIK
notes: as for B1
For the molecule B2, the binding result in experiment [1] is “binds”.

B3: antibody F3F8 (murine chimeric anti-FGFR2 antibody) (antibody, human IgG1, kappa, V domains shown)
VH: QVTLKESGPGILQSSQTLSLTCSFSGFSLSTSGMGVSWIRQPSGKGLEWLAHIYWDNDKRYNPSLKSRLTISKDTSRNQVFLKITSVDTADTATYYCTRSDSSGSFDYWGQGTTLTVSS
VL: DIQMTQTTSSLSASLGDRVTISCRASQDISNYLNWYQQKPDGTVKFLIYYTSTLHSGVPSRFSGSGSGTDYSLTISNLEQEDIATYFCQQGNTLPWTFGGGTKLEIKR
With B3, the binding result in experiment [2], in experiment [3] and in experiment [4] was “no binding” throughout.

B4: mouse antibody E3A1 (antibody, V domains shown)
VH: QVTLKESGPGILQSSQTLSLTCSFSGFSLTTSGMGVSWIRQPSGKGLEWLAHIYWDDDKRYNPSLKSRLTISKDTSRNQVFLKITSVDTADTATYYCAGCDSSGSFDYWGQGTTLTVSS
VL: DIQMTQTTSSLSASLGDRVTITCRASQDISNYLNWYQQKPDGTVKLLIYYRSRLHSGVPSRFSGSGSGPEYSLTISNLEQEDIATYFCQQGNTLPWTFGGGTKLEIK
notes: as for B1
For the molecule B4, the binding result in experiment [1] is recorded as “binds”.

B5: antibody E3A1 (murine chimeric anti-FGFR2 antibody) (antibody, human IgG1, kappa, V domains shown)
VH: QVTLKESGPGILQSSQTLSLTCSFSGFSLTTSGMGVSWIRQPSGKGLEWLAHIYWDDDKRYNPSLKSRLTISKDTSRNQVFLKITSVDTADTATYYCAGCDSSGSFDYWGQGTTLTVSS
VL: DIQMTQTTSSLSASLGDRVTITCRASQDISNYLNWYQQKPDGTVKLLIYYRSRLHSGVPSRFSGSGSGPEYSLTISNLEQEDIATYFCQQGNTLPWTFGGGTKLEIKR
Consider B5, for which the binding result in experiment [2] and in experiment [3] was “no binding” in each case.

B6: mouse antibody A1B2 (antibody, V domains shown)
VH: EVQLQQSGAELVRPGASVKLSCTASGFNIKDYYMHWVKQRPEQGLEWIGRIDPEDGDTEYAPKFQGKATMTADTSSNTAYLQLSSLTSEDTAVYYCTTYYYVSTYEDYWGQGTTLTVSS
VL: QIVLTQSPAIMSASLGEEITLTCSASSSVSHMHWYQQKSGTSPKLLIYSTSNLASGVPSRFSGSGSGTFYSLTISSVEAEDAADYYCHHWSSWTFGGGTKLEIK
notes: as for B1
Turning to B6, the binding result in experiment [1] was “binds”.

B7: antibody A1B2 (murine chimeric anti-FGFR2 antibody) (antibody, human IgG1, kappa, V domains shown)
VH: EVQLQQSGAELVRPGASVKLSCTASGFNIKDYYMHWVKQRPEQGLEWIGRIDPEDGDTEYAPKFQGKATMTADTSSNTAYLQLSSLTSEDTAVYYCTTYYYVSTYEDYWGQGTTLTVSS
VL: QIVLTQSPAIMSASLGEEITLTCSASSSVSHMHWYQQKSGTSPKLLIYSTSNLASGVPSRFSGSGSGTFYSLTISSVEAEDAADYYCHHWSSWTFGGGTKLEIKR
Take B7: the binding result in experiment [2], in experiment [3] and in experiment [4] was “no binding” each time.

B8: mouse antibody F6B6 (antibody, V domains shown)
VH: QVQLKQSGPGLVQPSQSLSITCTVSGFSLTNYGVHWVRQSPGKGLEWLGVIWSDGSTDYDAAFISRLSISTDNSKSQVFFKMNSLQAADTAIYYCARKGDYDYDNYAMDYWGQGTSVTVSS
VL: DVVITQSPATLSVTPGDSVSLSCRASQSISNNLHWYQQKSHESPRLLIKYASQSISGIPSRFSGSGSGTDFTLSINSVETEDFGMYFCQQSNSWPLTFGAGTKLELK
notes: as for B1
As for B8, in experiment [1], the binding result is listed as “binds”.

B9: antibody F6B6 (murine chimeric anti-FGFR2 antibody) (antibody, human IgG1, kappa, V domains shown)
VH: QVQLKQSGPGLVQPSQSLSITCTVSGFSLTNYGVHWVRQSPGKGLEWLGVIWSDGSTDYDAAFISRLSISTDNSKSQVFFKMNSLQAADTAIYYCARKGDYDYDNYAMDYWGQGTSVTVSS
VL: DVVITQSPATLSVTPGDSVSLSCRASQSISNNLHWYQQKSHESPRLLIKYASQSISGIPSRFSGSGSGTDFTLSINSVETEDFGMYFCQQSNSWPLTFGAGTKLELKR
B9: the binding result in experiment [2], in experiment [3] and in experiment [4] was “no binding” in each case.

B10: mouse antibody A5H12 (antibody, V domains shown)
VH: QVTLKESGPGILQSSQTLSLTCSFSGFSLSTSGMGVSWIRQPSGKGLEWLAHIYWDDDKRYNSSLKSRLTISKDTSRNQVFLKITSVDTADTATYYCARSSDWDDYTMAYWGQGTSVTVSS
VL: DIVLTQSPASLAVSLGQRATISCRASESIDDFGISFMHWYQQKPGQPPKLLIYRASNLESGIPARFSGSGSRADFTLTINPVETDDVATYYCQQSNKDPPTFGAGTNLELK
notes: as for B1
B10: the binding result in experiment [1] is recorded as “binds”.

B11: antibody D12D8 (murine chimeric anti-FGFR2 antibody) (antibody, human IgG1, kappa, V domains shown)
VH: QVQLQQSGAELARPGASVKLSCKASGYTFTNYGISWVKQRTGQGLEWIGEIYPRSGNTYYNEKFKGKATLTADKSSSTAYMELRSLTSEDSAVYFCARGDYSNSDYWGQGTTLTVSS
VL: DIQMTQTTSSLSASLGDRVTISCRASQDITDHLNWYQQKPDGTVKLLIYYTSRLHSGVPSRFSGSGSGTDYSLTISNLEQEDIATYFCQQGNTLPRTFGGGTKLEIKR
B11: the binding result in experiment [2], in experiment [3] and in experiment [4] was “no binding” in each case.

B12: antibody A5H12 (murine chimeric anti-FGFR2 antibody) (antibody, human IgG1, kappa, V domains shown)
VH: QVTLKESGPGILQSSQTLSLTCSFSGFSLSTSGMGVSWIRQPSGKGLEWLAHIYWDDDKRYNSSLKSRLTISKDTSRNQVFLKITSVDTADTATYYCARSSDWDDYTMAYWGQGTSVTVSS
VL: DIVLTQSPASLAVSLGQRATISCRASESIDDFGISFMHWYQQKPGQPPKLLIYRASNLESGIPARFSGSGSRADFTLTINPVETDDVATYYCQQSNKDPPTFGAGTNLELKR
For the molecule B12, the binding result in experiment [2] and in experiment [3] was “no binding” in each case.

B13: mouse antibody G11B8 (antibody, V domains shown)
VH: EVQLQQSGPELVKPGASVKIPCKASGYTFTDYNMDWVKQSHGKSLEWIGDINPKNGETFYNQKFKGKATLTVDRSSNTAYMELRSLTSEDTAVYFCAKRDLNWYFDYWGQGTTLTVSS
VL: DIQMTQSSSYLSVSLGGRVTITCKASDHINNWLAWYQQKPGNAPRLLISGATSLETGVPSRFSGSGSGKDYTLSITSLQTEDVATYYCQQYWSTPWTFGGGTKLEIK
notes: as for B1
With B13, the binding result in experiment [1] is recorded as “binds”.

B14: antibody G11B8 (murine chimeric anti-FGFR2 antibody) (antibody, human IgG1, kappa, V domains shown)
VH: EVQLQQSGPELVKPGASVKIPCKASGYTFTDYNMDWVKQSHGKSLEWIGDINPKNGETFYNQKFKGKATLTVDRSSNTAYMELRSLTSEDTAVYFCAKRDLNWYFDYWGQGTTLTVSS
VL: DIQMTQSSSYLSVSLGGRVTITCKASDHINNWLAWYQQKPGNAPRLLISGATSLETGVPSRFSGSGSGKDYTLSITSLQTEDVATYYCQQYWSTPWTFGGGTKLEIKR
On to B14, for which the binding result in experiment [2], in experiment [3] and in experiment [4] was “no binding” throughout.

B15: antibody H3F7-a (murine chimeric anti-FGFR2 antibody) (antibody, human IgG1, kappa, V domains shown)
VH: EVQLQQSGPELVKPGASVKIPCKASGYTFTDYNMDWVKQSHGKSLEWIGDINPKNGETFYNQKFKGKATLTVDRSSSTAYMELRSLTSEDTAVYFCAKRDLNWYFDYWGQGTTLTVSS
VL: DIQMTQSSSYLSVSLGGRVTITCKASDHINNWLAWYQQKPGNAPRLLISGATSLETGVPSRFSGSGSGKDYTLSITSLQTEDVATYYCQQYWSTPWTFGGGTKLEIKR
As for B15, the binding result in experiment [2], in experiment [3] and in experiment [4] was “no binding” throughout.

B16: mouse antibody H3F7-a (antibody, V domains shown)
VH: EVQLQQSGPELVKPGASVKIPCKASGYTFTDYNMDWVKQSHGKSLEWIGDINPKNGETFYNQKFKGKATLTVDRSSSTAYMELRSLTSEDTAVYFCAKRDLNWYFDYWGQGTTLTVSS
VL: DIQMTQSSSYLSVSLGGRVTITCKASDHINNWLAWYQQKPGNAPRLLISGATSLETGVPSRFSGSGSGKDYTLSITSLQTEDVATYYCQQYWSTPWTFGGGTKLEIK
notes: as for B1
Consider B16, for which, in experiment [1], the binding result is given as “binds”.
